What was measured:
[1] = target: human melanocortin-4 receptor (human) (UniProt P32245); assay: cell-based or functional assay
[2] = target: melanocortin-1 receptor (mouse (B-16 melanoma cells); in some instances human (hMC1-R)) (UniProt Q01727); assay: [I125]-NDP-α-MSH competition, MC1-R membranes
[3] = target: human melanocortin-4 receptor (human) (UniProt P32245); assay: [I125]-NDP-α-MSH competition, hMC4-R HEK-293 membranes

melanocortin-1 receptor (mouse (B-16 melanoma cells); in some instances human (hMC1-R)), sequence (Q01727 whole entry): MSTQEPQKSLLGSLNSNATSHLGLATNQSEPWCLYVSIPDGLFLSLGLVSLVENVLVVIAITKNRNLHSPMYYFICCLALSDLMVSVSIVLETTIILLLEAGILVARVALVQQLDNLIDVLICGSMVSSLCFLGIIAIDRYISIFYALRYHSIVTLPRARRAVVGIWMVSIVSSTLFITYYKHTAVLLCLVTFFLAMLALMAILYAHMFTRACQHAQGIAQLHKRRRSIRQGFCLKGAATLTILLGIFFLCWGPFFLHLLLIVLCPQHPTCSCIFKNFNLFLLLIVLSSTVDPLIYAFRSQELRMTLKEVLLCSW
human melanocortin-4 receptor (human), sequence (P32245 whole entry): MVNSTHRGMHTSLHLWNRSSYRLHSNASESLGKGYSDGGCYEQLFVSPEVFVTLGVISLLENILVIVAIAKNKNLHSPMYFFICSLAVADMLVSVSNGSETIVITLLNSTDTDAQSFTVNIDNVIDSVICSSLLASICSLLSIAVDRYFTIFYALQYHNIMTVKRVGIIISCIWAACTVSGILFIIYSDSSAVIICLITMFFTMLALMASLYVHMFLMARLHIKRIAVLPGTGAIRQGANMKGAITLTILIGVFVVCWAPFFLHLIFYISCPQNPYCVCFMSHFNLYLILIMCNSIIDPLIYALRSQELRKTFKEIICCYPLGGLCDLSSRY

Substance	EC50, cAMP, 0.1 ng/mL Doxycycline [1] [nM]	EC50, cAMP, 10 ng/mL Doxycycline [1] [nM]	Intrinsic Activity, cAMP, 0.1 ng/mL Doxycycline [1] [%]	Intrinsic Activity, cAMP, 10 ng/mL Doxycycline [1] [%]	Ki [2] [nM]	Ki [3] [nM]
Ac-Arg-cyclo(Glu-Dab-D-Phe(4-OMe)-Arg-Trp-Orn)-NH2 (peptide)	0.15	0.16	28	97	0.15	0.25
Ac-Arg-cyclo(Glu-Hyp-D-Phe(2-Cl)-Arg-Trp-Orn)-NH2 (peptide)	1	0.153	41	98	143	1
Ac-Arg-cyclo(Glu-Hyp-D-Phe(3-Cl)-Arg-Trp-Orn)-NH2 (peptide)		0.55	6	90	430	2
Ac-Arg-cyclo(Glu-Met(O2)-D-Phe(4-F)-Arg-Trp-Orn)-NH2 (peptide)	0.85	0.075	55	91	33	2
Ac-Arg-cyclo(Glu-Orn-D-Phe(3-Cl)-Arg-Trp-Orn)-OH (peptide)	10	0.8	28	98	23	20
Ac-D-Arg-cyclo(Orn-His-D-Phe(2-Cl)-Arg-Trp-Glu)-NH2 (peptide)	0.21	0.085	94	94	2	1
Ac-D-Arg-cyclo(Orn-His-D-Phe(3,4-diF)-Arg-Trp-Glu)-NH2 (peptide)	0.075	0.075	56	92	0.7	0.25
Ac-D-Arg-cyclo(Orn-His-D-Phe(4-F)-Arg-Trp-Glu)-NH2 (peptide)	0.25	0.095	89	100	1	0.65

Other lines, results leading:

EC50, cAMP, 0.1 ng/mL Doxycycline [1] [nM]	EC50, cAMP, 10 ng/mL Doxycycline [1] [nM]	Intrinsic Activity, cAMP, 0.1 ng/mL Doxycycline [1] [%]	Intrinsic Activity, cAMP, 10 ng/mL Doxycycline [1] [%]	Ki [2] [nM]	Ki [3] [nM]	Substance
0.065	0.06	83	90	0.5	0.25	Ac-Arg-cyclo(Glu-Dab-D-Phe(4-F)-Arg-Trp-Orn)-NH2 (peptide)
	0.5	8	93	880	2	Ac-Arg-cyclo(Glu-Hyp-D-Phe(4-CN)-Arg-Trp-Orn)-NH2 (peptide)
0.45	0.14	62	95	89	1	Ac-Arg-cyclo(Glu-Hyp-D-Phe(4-F)-Arg-Trp-Orn)-NH2 (peptide)
2	0.235	74	93	8	8	Ac-Arg-cyclo(Glu-Orn-D-Phe(2-Cl)-Arg-Trp-Orn)-OH (peptide)
0.37	0.157	30	93	12	0.35	Ac-Arg-cyclo(Glu-Thr(Bzl)-D-Phe(2-Cl)-Arg-Trp-Orn)-NH2 (peptide)
0.64	0.4	22	95	3	0.6	Ac-D-Arg-cyclo(Orn-His-D-Phe(3-Cl)-Arg-Trp-Glu)-NH2 (peptide)
0.325	0.2	31	99	6	0.6	Ac-D-Arg-cyclo(Orn-His-D-Phe(4-CN)-Arg-Trp-Glu)-NH2 (peptide)

Reference: patent publication US20100311648A1
